± gives the uncertainty stated by the source.
Experiment: self-splicing fitness, log relative to wild type (ln ratio); higher = more splicing; Tetrahymena group I intron in knt gene, E. coli kanamycin selection, DiMSum; sequences stand for … in CUCUCU…GGAGGGAAAAGUUAUCAGGCAUGCACCUGGUAGCUAGUCUUUAAACCAAUAGAUUGCAUCGGUUUAAAAGGCAAGACCGUCAAAUUGCGGGAAAGGGGUCAACAGCCGUUCAGUACCAAGUCUCAGGGGAAACUUUGAGAUGGCCUUGCAAAGGGUAUGGUAAUAAGCUGACGGACAUGGUCCUAACCACGCAGCCAAGUCCUAAGUCAACAGAUCUUCUGUUGAUAUGGAUGCAGUUCACAGACUAAAUGUCGGUCGGGGAAGAUGUAUUCUUCUCAUAAGAUAUAGUCGGACCUCUCCUUAAUGGGAGCUAGCGGAUGAAGUGAUGCAACACUGGAGCCGCUGGGAACUAAUUUGUAUGCGAAAGUAUAUUGAUUAGUUUUGGAGUACUCGUGGUCG
Outline: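 Fitness was computed with DiMSum as the error-weighted combination of replicate fold changes, kanamycin versus none, each normalised to wild type. The library randomised all eight intron nucleotides of the P1ex region, with the intron placed in the knt kanamycin-resistance gene on pET-22b(+) in E. coli BL21(DE3). Six replicate transformations were grown overnight at 37°C or 30°C on LB agar with or without 25 μg/mL kanamycin, plus 100 μg/mL carbenicillin, 50 μM IPTG and 0.2% rhamnose. Pooled colonies were amplicon-sequenced on an Illumina HiSeq 2500.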

| Sequence | self-splicing fitness (ln) (30 °C) | self-splicing fitness (ln) (37 °C) |
| --- | --- | --- |
| CGUAAGCAAUAUUACGCUAG | -2.48 ± 0.13 | -0.429 ± 0.14 |
| UAUAAGCAAUAUUACGCAGA | -0.745 ± 0.45 | -1.25 ± 0.18 |
| AACAAGCAAUAUUACGCCAC | -3.71 ± 0.4 | -2.83 ± 0.47 |
| GGUGAGCAAUAUUACGAGGU | -2.22 ± 0.29 | -1.68 ± 0.27 |
| GGACAGCAAUAUUACGAAUG | -2.09 ± 0.17 | -1.9 ± 0.22 |
| AGAAAGCAAUAUUACGUCGC | -2.69 ± 0.16 | -1.76 ± 0.15 |
| AAGAAGCAAUAUUACGGUUC | -2.86 ± 0.14 | -0.743 ± 0.15 |
| UUGAAGCAAUAUUACGGCCC | -3.04 ± 0.4 | -0.425 ± 0.2 |
| UCCGAGCAAUAUUACGGGUG | -1.97 ± 0.089 | -1.66 ± 0.099 |
| AGCCAGCAAUAUUACGGCCA | -0.79 ± 0.089 | -0.322 ± 0.11 |
| AAGGAGCAAUAUUACGGGCU | -2.94 ± 0.24 | -2.53 ± 0.28 |
| UCCUAGCAAUAUUACGGCAU | -3.31 ± 0.17 | -2.2 ± 0.11 |
| AGAAAGCAAUAUUACGAGAC | -2.65 ± 0.3 | -2.13 ± 0.47 |
| AUCUAGCAAUAUUACGGAGA | -2.16 ± 0.2 | -1.32 ± 0.16 |
| GCAUAGCAAUAUUACGCAUA | -2.29 ± 0.15 | -1.16 ± 0.12 |
| GUACAGCAAUAUUACGUCUC | -0.298 ± 0.11 | -0.182 ± 0.12 |
| UUAUAGCAAUAUUACGGGAU | -2.78 ± 0.39 | -3.5 ± 0.42 |
| ACGUAGCAAUAUUACGGUAU | -2.02 ± 0.11 | -1.56 ± 0.12 |
| GCCCAGCAAUAUUACGUCAC | -2.87 ± 0.13 | -2.64 ± 0.22 |

| Sequence | self-splicing fitness (ln) (30 °C) | self-splicing fitness (ln) (37 °C) |
| --- | --- | --- |
| GUACAGCAAUAUUACGGGCA | -1.9 ± 0.093 | -0.873 ± 0.088 |
| AGCCAGCAAUAUUACGGCAC | -1.26 ± 0.13 | -0.402 ± 0.15 |
| CCUUAGCAAUAUUACGACCC | -2.95 ± 0.44 |  |
| UCUUAGCAAUAUUACGGUCA | -1.71 ± 0.16 | -0.613 ± 0.16 |
| AGCAAGCAAUAUUACGCGAA | -2.39 ± 0.1 | -0.85 ± 0.099 |
| GAAUAGCAAUAUUACGCGCU | -0.615 ± 0.13 | -0.0137 ± 0.15 |
| UCCCAGCAAUAUUACGUGGU | -1.53 ± 0.069 | -0.339 ± 0.071 |
| GCGGAGCAAUAUUACGCGCG | -2.77 ± 0.34 | -2.83 ± 0.27 |
| UUGUAGCAAUAUUACGGGCA | -1.8 ± 0.21 | -0.65 ± 0.2 |
| AGCAAGCAAUAUUACGUGCU | -2.38 ± 0.14 | -2.07 ± 0.16 |
| CAGUAGCAAUAUUACGCAAA |  | -3.33 ± 0.43 |
| CGUAAGCAAUAUUACGCCCG | -1.93 ± 0.18 | -0.621 ± 0.23 |
| GGAUAGCAAUAUUACGUUGU | -3.13 ± 0.2 | -1.58 ± 0.15 |
| CAUAAGCAAUAUUACGCAUA | -2.48 ± 0.18 | -1.71 ± 0.24 |
| UCUUAGCAAUAUUACGUCCG | -1.41 ± 0.19 | -1.59 ± 0.23 |
| UUCGAGCAAUAUUACGUGUU | -4.05 ± 0.25 | -1.72 ± 0.18 |
| AUACAGCAAUAUUACGUUAU | -3.44 ± 0.13 | -2.04 ± 0.1 |
| AAUGAGCAAUAUUACGGGUA |  | -0.858 ± 0.23 |
| CAGAAGCAAUAUUACGCUUU | -2.99 ± 0.17 | -3.59 ± 0.26 |
